Patent publication US20240024414

These substances were tested against L7Ae (50S ribosomal protein L7Ae, L30 family, RBP11) (Archaeoglobus fulgidus) (UniProt O29494) (assay: pulldown). Conditions: RIP-Seq enrichment, may be indirect.
Sequence of L7Ae (50S ribosomal protein L7Ae, L30 family, RBP11) (Archaeoglobus fulgidus) (O29494 whole entry): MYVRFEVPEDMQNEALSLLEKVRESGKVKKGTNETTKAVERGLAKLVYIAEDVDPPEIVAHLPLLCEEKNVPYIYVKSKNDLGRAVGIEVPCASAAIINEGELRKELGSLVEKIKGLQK
In the case of FAM69A RNA, the binding signal (log2 fold change) is reported as 4.98. Work on NPM1 RNA yielded a binding signal (log2 fold change) of 3.22. Substance SNORA62 RNA has a binding signal (log2 fold change) of 3.32. SNORA73B RNA showed a binding signal (log2 fold change) of 4.08. SNORA79B RNA showed a binding signal (log2 fold change) of 3.28.
